In PMC4510711:

Key:
[1] = biological target: T1, RC3H1-N2 (RING+ROQ+CCCH Zn finger) (Homo sapiens, UniProt Q5TC82 2-452); test: EMSA; virtually unaffected vs WT; EMSA: 20 mM Tris-HCl pH 7.5, 50 mM KCl, 5 mM MgCl2, 20 uM ZnSO4, 10% glycerol, 2 mM DTT, 0.05 mg/ml BSA, 5 ug/ml heparin; 50 fmol RNA in 20 ul, room temperature
T1 sequence: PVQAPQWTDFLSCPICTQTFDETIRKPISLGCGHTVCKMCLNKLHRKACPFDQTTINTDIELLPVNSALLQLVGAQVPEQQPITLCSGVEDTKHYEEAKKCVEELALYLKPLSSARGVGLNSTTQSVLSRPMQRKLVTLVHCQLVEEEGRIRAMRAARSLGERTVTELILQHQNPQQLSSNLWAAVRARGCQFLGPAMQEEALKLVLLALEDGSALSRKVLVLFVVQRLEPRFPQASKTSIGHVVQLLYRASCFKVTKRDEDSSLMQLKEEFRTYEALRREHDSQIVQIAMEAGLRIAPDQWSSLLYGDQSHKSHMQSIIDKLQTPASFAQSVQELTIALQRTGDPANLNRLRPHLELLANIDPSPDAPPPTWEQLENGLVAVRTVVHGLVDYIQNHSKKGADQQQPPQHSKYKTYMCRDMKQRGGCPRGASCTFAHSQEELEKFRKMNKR

RC3H1-N1 (RING+ROQ) = biological target: T2, RC3H1-N1 (RING+ROQ) (Homo sapiens, UniProt Q5TC82 2-399); test: EMSA; EMSA: 20 mM Tris-HCl pH 7.5, 50 mM KCl, 5 mM MgCl2, 20 uM ZnSO4, 10% glycerol, 2 mM DTT, 0.05 mg/ml BSA, 5 ug/ml heparin; 50 fmol RNA in 20 ul, room temperature
T2 sequence: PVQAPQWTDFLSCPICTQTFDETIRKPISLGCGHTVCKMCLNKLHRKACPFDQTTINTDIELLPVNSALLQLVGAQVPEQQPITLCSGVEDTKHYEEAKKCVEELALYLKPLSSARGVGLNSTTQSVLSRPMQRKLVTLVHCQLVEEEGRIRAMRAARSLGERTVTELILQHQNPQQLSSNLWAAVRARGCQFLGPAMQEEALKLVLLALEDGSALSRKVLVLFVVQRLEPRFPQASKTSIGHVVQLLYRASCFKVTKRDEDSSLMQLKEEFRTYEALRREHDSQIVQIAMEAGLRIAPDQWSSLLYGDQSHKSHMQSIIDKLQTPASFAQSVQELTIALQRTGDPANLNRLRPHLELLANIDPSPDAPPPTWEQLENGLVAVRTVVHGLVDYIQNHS

[2] = biological target: T1, RC3H1-N2 (RING+ROQ+CCCH Zn finger); test: EMSA; complex formation seemed independent of the Zn finger; EMSA: 20 mM Tris-HCl pH 7.5, 50 mM KCl, 5 mM MgCl2, 20 uM ZnSO4, 10% glycerol, 2 mM DTT, 0.05 mg/ml BSA, 5 ug/ml heparin; 50 fmol RNA in 20 ul, room temperature
[3] = biological target: T1, RC3H1-N2 (RING+ROQ+CCCH Zn finger); test: EMSA; EMSA: 20 mM Tris-HCl pH 7.5, 50 mM KCl, 5 mM MgCl2, 20 uM ZnSO4, 10% glycerol, 2 mM DTT, 0.05 mg/ml BSA, 5 ug/ml heparin; 50 fmol RNA in 20 ul, room temperature
[4] = biological target: T1, RC3H1-N2 (RING+ROQ+CCCH Zn finger); test: EMSA; higher affinity than the 21-nt hairpin; EMSA: 20 mM Tris-HCl pH 7.5, 50 mM KCl, 5 mM MgCl2, 20 uM ZnSO4, 10% glycerol, 2 mM DTT, 0.05 mg/ml BSA, 5 ug/ml heparin; 50 fmol RNA in 20 ul, room temperature

B1: Mut1 (21 nt) (structured_RNA)
RNA: CCCUUACAUAAUGUAUGAGGG
[1]
  binding result: binds

B2: ICOS (13 nt) CDE-like stem-loop (structured_RNA)
RNA: AUUUCUGUGAAAU
RC3H1-N1 (RING+ROQ)
  binding result: binds
[2]
  binding result: binds

B3: Mut3 (21 nt) control (ssRNA)
RNA: CCUCCCCCCCUGCCCCCCAGC
[3]
  binding result: no binding

B4: A20 (21 nt) stem-loop WT (structured_RNA)
RNA: CCCUUACAUUAUGUAUGAGGG
[3]
  binding result: binds

B5: A20 (37 nt) ARE-stem-loop (structured_RNA)
RNA: AUAUAUAAUAUACCCUUACAUUAUGUAUGAGGGAUUU
[4]
  binding result: binds
